In US6683057:

Molecular target: Gβγ (βγ subunit of the heterotrimeric G protein) (rabbit)
Assay: cell-based or functional assay

An EGF activation of MAP kinase in cultured vascular smooth muscle cells (versus empty virus treated cells) of -7%, an LPA activation of MAP kinase in cultured vascular smooth muscle cells (versus empty virus treated cells) of -58% and a basal MAP kinase activity in cultured vascular smooth muscle cells (versus empty virus treated cells) of 18% were found for “βARKCT (βARK-1-(495-689) polypeptide; Met-Gly495-Leu689 of bovine β-adrenergic receptor kinase-1) (from UniProt P21146 495-689)” in this work. The serum activation of MAP kinase in cultured vascular smooth muscle cells (versus empty virus treated cells) was -38%.
